Laboratory results as given in article PMC10570326.

Molecular target: OmpK36 (UniProt Q48473)
Experiment: crystal structure; laser-shaped cylindrical crystal, S-SAD at a wavelength of 4.13 Å, resolution limited to 2.7 Å

OmpK36 (from UniProt Q48473 22-363) (natural protein)
stoichiometry N: 3
